We go through 3 molecules from paper PMC10397247.

In one test the target is T1, 4H2343-AA.
T1 chain: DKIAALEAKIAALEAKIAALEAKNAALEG
Put plainly: two-hybrid library CCmax.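 Note: natural log of median RNA to DNA barcode read ratio; higher means stronger binding.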

Another test deals with T2, 4H2466-AA.
T2 chain: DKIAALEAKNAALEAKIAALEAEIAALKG
Put plainly: two-hybrid library CCmax.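 Note: natural log of median RNA to DNA barcode read ratio; higher means stronger binding.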 Conditions: mean of both orientations.

The next test has as its target T3, 4H249-AA.
T3 chain: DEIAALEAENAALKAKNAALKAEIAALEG
The test can be described thus: two-hybrid library CCmax.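 Note: natural log of median RNA to DNA barcode read ratio; higher means stronger binding.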 Conditions: mean of both orientations.

A further test addresses T4, 4H2592-AA.
T4 chain: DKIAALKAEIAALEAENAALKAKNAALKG
The test can be described thus: two-hybrid library CCmax.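 Note: natural log of median RNA to DNA barcode read ratio; higher means stronger binding.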 Conditions: mean of both orientations.

For another test, the target named is T5, 4H2732-AA.
T5 chain: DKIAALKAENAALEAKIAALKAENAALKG
The test can be described thus: two-hybrid library CCmax.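 Note: natural log of median RNA to DNA barcode read ratio; higher means stronger binding.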 Particulars: mean of both orientations.

The target of the next test is T6, 4H2774-AA.
T6 chain: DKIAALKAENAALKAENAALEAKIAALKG
Put plainly: two-hybrid library CCmax.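 Note: natural log of median RNA to DNA barcode read ratio; higher means stronger binding.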 Conditions: mean of both orientations.

The target of a further test is T7, 4H2931-AA.
T7 chain: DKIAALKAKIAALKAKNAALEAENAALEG
Put plainly: two-hybrid library CCmax. Particulars: mean of both orientations.

A further test concerns the target T8, 4H3001-AA.
T8 chain: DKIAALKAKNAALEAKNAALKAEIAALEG
The test can be described thus: two-hybrid library CCmax. Conditions: mean of both orientations.

Another test concerns the target T9, 4H3015-AA.
T9 chain: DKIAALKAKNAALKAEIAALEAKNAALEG
The test can be described thus: two-hybrid library CCmax. Particulars: mean of both orientations.

Another test has as its target T10, 4H3073-AA.
T10 chain: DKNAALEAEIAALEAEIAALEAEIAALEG
Put plainly: two-hybrid library CCmax. Conditions: mean of both orientations.

The target of another test is T11, 4H3438-AA.
T11 chain: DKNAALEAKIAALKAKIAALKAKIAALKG
Put plainly: two-hybrid library CCmax. Conditions: mean of both orientations.

For a further test, the target named is T12, 4H347-AA.
T12 chain: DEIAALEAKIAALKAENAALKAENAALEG
The test can be described thus: two-hybrid library CCmax. Particulars: mean of both orientations.

In a further test the target is T13, 4H406-AA.
T13 chain: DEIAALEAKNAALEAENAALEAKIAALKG
Put plainly: two-hybrid library CCmax. Particulars: mean of both orientations.

The next test deals with T14, 4H452-AA.
T14 chain: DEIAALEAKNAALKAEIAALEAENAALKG
The test can be described thus: two-hybrid library CCmax. Particulars: mean of both orientations.

Another test deals with T15, 4H56-AA.
T15 chain: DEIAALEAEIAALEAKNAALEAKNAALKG
Put plainly: two-hybrid library CCmax. Particulars: mean of both orientations.

The target of a further test is T16, 4H_APH.
T16 chain: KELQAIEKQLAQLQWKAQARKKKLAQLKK
The test can be described thus: two-hybrid library CCmax. Conditions: mean of both orientations.

A further test has as its target T17, 4H_BCR.
T17 chain: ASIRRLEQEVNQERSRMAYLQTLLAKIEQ
Put plainly: two-hybrid library CCmax. Particulars: mean of both orientations.

The target in the next test is 4H_GCN4. Put plainly: two-hybrid library CCmax. Conditions: mean of both orientations.
A further test addresses GCN2_T. Put plainly: two-hybrid library CCmax.
The next test deals with T18, P9mSN.
T18 chain: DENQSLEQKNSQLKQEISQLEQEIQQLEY
Put plainly: two-hybrid library CCNG1.

The target in another test is T19, APC1434-AA.
T19 chain: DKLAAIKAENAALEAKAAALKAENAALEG
The test can be described thus: two-hybrid library CCmax.

The target of a further test is T20, APC2237-AA.
T20 chain: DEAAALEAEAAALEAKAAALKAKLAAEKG
The test can be described thus: two-hybrid library CCmax. Conditions: mean of both orientations.

The target of the next test is T21, APC232-AA.
T21 chain: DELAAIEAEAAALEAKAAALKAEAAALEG
The test can be described thus: two-hybrid library CCmax. Conditions: mean of both orientations.

Another test addresses T22, APC2405-AA.
T22 chain: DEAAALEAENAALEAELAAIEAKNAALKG
The test can be described thus: two-hybrid library CCmax. Particulars: mean of both orientations.

A further test has as its target T23, APC3645-AA.
T23 chain: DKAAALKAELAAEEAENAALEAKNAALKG
The test can be described thus: two-hybrid library CCmax. Conditions: mean of both orientations.

A further test has as its target T24, APC4011-AA.
T24 chain: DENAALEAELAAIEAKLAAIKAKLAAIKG
The test can be described thus: two-hybrid library CCmax. Conditions: mean of both orientations.

Another test deals with T25, APC4264-AA.
T25 chain: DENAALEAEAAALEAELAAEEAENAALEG
The test can be described thus: two-hybrid library CCmax. Conditions: mean of both orientations.

Another test addresses T26, APC4436-AA.
T26 chain: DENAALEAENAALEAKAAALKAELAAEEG
The test can be described thus: two-hybrid library CCmax. Conditions: mean of both orientations.

The next test addresses T27, APC5383-AA.
T27 chain: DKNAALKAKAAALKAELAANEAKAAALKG
Put plainly: two-hybrid library CCmax. Particulars: mean of both orientations.

For another test, the target named is T28, APC6108-AA.
T28 chain: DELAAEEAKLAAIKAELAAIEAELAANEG
The test can be described thus: two-hybrid library CCmax. Particulars: mean of both orientations.

Another test deals with T29, APC7099-AA.
T29 chain: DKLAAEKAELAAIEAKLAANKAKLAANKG
Put plainly: two-hybrid library CCmax. Conditions: mean of both orientations.

Another test concerns the target T30, APC8191-AA.
T30 chain: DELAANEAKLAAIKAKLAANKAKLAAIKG
The test can be described thus: two-hybrid library CCmax. Conditions: mean of both orientations.

Another test deals with T31, APC8910-AA.
T31 chain: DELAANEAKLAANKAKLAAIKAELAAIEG
The test can be described thus: two-hybrid library CCmax. Particulars: mean of both orientations.

A further test deals with T32, APC9096-AA.
T32 chain: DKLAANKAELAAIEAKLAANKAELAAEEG
Put plainly: two-hybrid library CCmax. Conditions: mean of both orientations.

In another test the target is T33, APC9319-AA.
T33 chain: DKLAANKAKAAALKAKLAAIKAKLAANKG
Put plainly: two-hybrid library CCmax. Particulars: mean of both orientations.

Sequence of 4H_GCN4 (chain, as listed by the source): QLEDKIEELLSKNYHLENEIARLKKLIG

As to DKIAALEAKIAALEAKIAALEAKNAALEG [4H2343-AA], the interaction score is 1.95 with 4H2343-AA; -1.39 in the test with 4H2466-AA; -1.75 with 4H249-AA; -1.2 with 4H2592-AA; -1.84 with 4H2732-AA; -1.54 with 4H2774-AA. The interaction score is -1.61 in the test with 4H2931-AA; -1.8 with 4H3001-AA; -1.83 with 4H3015-AA; 0.404 in the test with 4H3073-AA; 0.393 with 4H3438-AA; -1.77 with 4H347-AA. Further, the interaction score in the test with 4H406-AA was -1.85; with 4H452-AA, -1.86; with 4H56-AA it was -1.45; with 4H_APH, -1.88; in the test with 4H_BCR it was -2.04; with 4H_GCN4, -1.32. For the same molecule, the interaction score with GCN2_T was -2.25.

The molecule DENQSLEQKNSQLKQEISQLEQEIQQLEY [P9mSN] had an interaction score with P9mSN of -1.56.

For DKLAAIKAENAALEAKAAALKAENAALEG [APC1434-AA], the interaction score is -1.78 with APC1434-AA; -1.66 with APC2237-AA; -1.48 with APC232-AA; -1.36 with APC2405-AA; -1.31 with APC3645-AA; -1.72 in the test with APC4011-AA. The interaction score with APC4264-AA was -1.64; with APC4436-AA it was -1.61; with APC5383-AA, -1.97; with APC6108-AA, -1.79; in the test with APC7099-AA, -1.28; in the test with APC8191-AA, -1.74. Further, the interaction score with APC8910-AA is -1.81; in the test with APC9096-AA, -1.36; with APC9319-AA it was -1.75.
